Experimental data: the supplement of paper PMC7877785
± gives the uncertainty stated by the source.

Experiment: self-splicing fitness, log relative to wild type (ln ratio); higher = more splicing; Tetrahymena group I intron in knt gene, E. coli kanamycin selection, DiMSum; sequences stand for … in CUCUCU…GGAGGGAAAAGUUAUCAGGCAUGCACCUGGUAGCUAGUCUUUAAACCAAUAGAUUGCAUCGGUUUAAAAGGCAAGACCGUCAAAUUGCGGGAAAGGGGUCAACAGCCGUUCAGUACCAAGUCUCAGGGGAAACUUUGAGAUGGCCUUGCAAAGGGUAUGGUAAUAAGCUGACGGACAUGGUCCUAACCACGCAGCCAAGUCCUAAGUCAACAGAUCUUCUGUUGAUAUGGAUGCAGUUCACAGACUAAAUGUCGGUCGGGGAAGAUGUAUUCUUCUCAUAAGAUAUAGUCGGACCUCUCCUUAAUGGGAGCUAGCGGAUGAAGUGAUGCAACACUGGAGCCGCUGGGAACUAAUUUGUAUGCGAAAGUAUAUUGAUUAGUUUUGGAGUACUCGUGGUCG
Outline: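 The eight P1ex-region nucleotides of an intron in the knt kanamycin-resistance gene on pET-22b(+) were all randomised and the library put into E. coli BL21(DE3). Six replicate transformations were grown overnight at 37°C or 30°C on LB agar with or without 25 μg/mL kanamycin, together with 100 μg/mL carbenicillin, 50 μM IPTG and 0.2% rhamnose. Colonies were pooled and amplicon-sequenced on an Illumina HiSeq 2500. Fitness from DiMSum is the error-weighted combination of wild-type-normalised replicate fold changes, kanamycin over none.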

Row | Sequence | self-splicing fitness (ln) (30 °C) | self-splicing fitness (ln) (37 °C)
1 | AGGGAGCAAUAUUACGGAAG | -3.61 ± 0.4 | -1.02 ± 0.33
2 | CUCAAGCAAUAUUACGUACA | -3.5 ± 0.23 | -1.83 ± 0.18
3 | AUUAAGCAAUAUUACGGCCA | -0.171 ± 0.12 | -0.598 ± 0.12
4 | UGCCAGCAAUAUUACGGCCG | -0.659 ± 0.073 | -0.389 ± 0.092
5 | UGCAAGCAAUAUUACGAGCC | -1.39 ± 0.11 | -1.52 ± 0.14
6 | CGAUAGCAAUAUUACGCAGG | -1.6 ± 0.092 | -1.25 ± 0.1
7 | AGGAAGCAAUAUUACGGCUU | -3.74 ± 0.34 | -1.32 ± 0.17
8 | AAUUAGCAAUAUUACGUAGA | -1.75 ± 0.14 | -2.03 ± 0.17
9 | CUGUAGCAAUAUUACGGAUA | -2.3 ± 0.28 | -2.22 ± 0.33
10 | AAACAGCAAUAUUACGUGGU | -4.06 ± 0.14 | -2.31 ± 0.15
11 | CUACAGCAAUAUUACGCUGG | -3.11 ± 0.097 | -2.66 ± 0.15
12 | AGAUAGCAAUAUUACGGCAA | 0.243 ± 0.16 | -0.127 ± 0.19
13 | CACAAGCAAUAUUACGGUCA | -2.04 ± 0.1 | -0.612 ± 0.1
14 | GGCAAGCAAUAUUACGGGUA | -1.57 ± 0.1 | -0.544 ± 0.11
15 | CAAUAGCAAUAUUACGCGAA | -3.11 ± 0.21 | -1.67 ± 0.15
16 | CAGGAGCAAUAUUACGUGGC |  | -1.5 ± 0.38
17 | AAGGAGCAAUAUUACGUCAU | -3.84 ± 0.2 | -2.94 ± 0.24
18 | CCUCAGCAAUAUUACGACCC | -2.75 ± 0.38 | -2.41 ± 0.49
19 | GAAAAGCAAUAUUACGGAUC | -1.04 ± 0.072 | -0.773 ± 0.087
20 | UAUGAGCAAUAUUACGCUUU | -4.14 ± 0.33 | -2.65 ± 0.36
21 | UAAGAGCAAUAUUACGUGAC | -3.63 ± 0.27 | -2.8 ± 0.34
22 | CAUAAGCAAUAUUACGUCGU | -4.23 ± 0.34 | -1.64 ± 0.12
23 | AGUUAGCAAUAUUACGAGUA | -2.73 ± 0.17 | -1.64 ± 0.13
24 | AAUGAGCAAUAUUACGUGGC | -2.82 ± 0.15 | -2.7 ± 0.2
25 | CAGGAGCAAUAUUACGGGAA | -4.1 ± 0.23 | -2.47 ± 0.17
26 | CCGAAGCAAUAUUACGUAAU | -3.37 ± 0.24 | -2.54 ± 0.18
27 | GACCAGCAAUAUUACGCGUU | -3.49 ± 0.12 | -2.54 ± 0.14

Row | Sequence | self-splicing fitness (ln) (30 °C) | self-splicing fitness (ln) (37 °C)
28 | GUCAAGCAAUAUUACGCGCA | -0.483 ± 0.097 | -0.0303 ± 0.11
29 | UCAAAGCAAUAUUACGGCGC | -1.8 ± 0.1 | -1.41 ± 0.13
30 | GCAGAGCAAUAUUACGGCGA | -2.12 ± 0.11 | -1.55 ± 0.11
31 | GCAAAGCAAUAUUACGGUCG | -1.62 ± 0.089 | -0.369 ± 0.11
32 | CAAUAGCAAUAUUACGUUGA | -2.59 ± 0.15 | -3.59 ± 0.22
33 | AACGAGCAAUAUUACGAAGG |  | -2.3 ± 0.2
34 | GUGAAGCAAUAUUACGUCCA | -0.721 ± 0.16 | 0.775 ± 0.22
35 | UUGCAGCAAUAUUACGGGGU | -4.28 ± 0.2 | -2.51 ± 0.18
36 | GGCCAGCAAUAUUACGUACG | -1.8 ± 0.11 | -1.1 ± 0.12
37 | CGAUAGCAAUAUUACGUUCA | -0.0649 ± 0.082 | 0.251 ± 0.1
38 | UCCUAGCAAUAUUACGGAAC |  | -2.69 ± 0.24
39 | CUGUAGCAAUAUUACGAAGG | -1.83 ± 0.21 | -2.22 ± 0.3
40 | UGUUAGCAAUAUUACGAACG | -0.101 ± 0.092 | -0.499 ± 0.11
41 | CCCAAGCAAUAUUACGGUAG | -2.45 ± 0.086 | -1.77 ± 0.087
42 | GUGCAGCAAUAUUACGUCGG | -2.84 ± 0.16 | -1.47 ± 0.17
43 | GGUAAGCAAUAUUACGUGGC | -2.67 ± 0.15 | -1.29 ± 0.16
44 | UUACAGCAAUAUUACGUGUC | -3.93 ± 0.17 | -3.21 ± 0.21
45 | UACGAGCAAUAUUACGUGGU | -2.86 ± 0.15 | -1.87 ± 0.23
46 | CGAAAGCAAUAUUACGUCCG | -1.22 ± 0.088 | -0.637 ± 0.12
47 | GUCGAGCAAUAUUACGAUCA | -1 ± 0.19 | -0.515 ± 0.21
48 | UGCAAGCAAUAUUACGUCGC | -2.86 ± 0.43 | -2.36 ± 0.49
49 | AACGAGCAAUAUUACGGUCC |  | -1.13 ± 0.31
50 | UAUGAGCAAUAUUACGAAAC | -2.34 ± 0.21 | 
51 | CUUAAGCAAUAUUACGGCUG | -1.38 ± 0.13 | -1.07 ± 0.17
52 | UUGGAGCAAUAUUACGGAAG | -3.3 ± 0.44 | 
53 | UUGGAGCAAUAUUACGAAUC |  | -2.58 ± 0.5
54 | AACGAGCAAUAUUACGAAUC | -3.96 ± 0.26 | -2.5 ± 0.41

Row | Sequence | self-splicing fitness (ln) (30 °C) | self-splicing fitness (ln) (37 °C)
55 | UGCUAGCAAUAUUACGCGUC | -3.06 ± 0.27 | -2.23 ± 0.27
56 | UAACAGCAAUAUUACGUAGC | -3.86 ± 0.17 | -2.02 ± 0.11
57 | GCUGAGCAAUAUUACGGAAG | -2.41 ± 0.24 | -0.395 ± 0.17
58 | AUGGAGCAAUAUUACGGUCG | -2.63 ± 0.18 | -0.839 ± 0.12
59 | CGCUAGCAAUAUUACGACUA | -2.81 ± 0.16 | -2.52 ± 0.23
60 | CCUAAGCAAUAUUACGUGGC | -3.59 ± 0.18 | -2.85 ± 0.19
61 | UACCAGCAAUAUUACGCAGA | -1.24 ± 0.11 | -0.165 ± 0.11
62 | GAGCAGCAAUAUUACGCUUA | -0.991 ± 0.077 | -0.238 ± 0.11
63 | UCUAAGCAAUAUUACGUGAC | -2.88 ± 0.23 | -2.95 ± 0.28
64 | ACUUAGCAAUAUUACGCGCA | -0.717 ± 0.093 | -0.258 ± 0.13
65 | UAACAGCAAUAUUACGAAAG | -1.44 ± 0.14 | -1.76 ± 0.21
66 | GAGUAGCAAUAUUACGUAGG | -3.9 ± 0.24 | -1.81 ± 0.17
67 | ACGCAGCAAUAUUACGAGCA | -1.58 ± 0.096 | -1.2 ± 0.11
68 | UGAGAGCAAUAUUACGCGAG | -3.56 ± 0.37 | -2.34 ± 0.22
69 | AUAAAGCAAUAUUACGUUGU | -2.65 ± 0.11 | -1.9 ± 0.11
70 | ACGCAGCAAUAUUACGUGUA | -2.93 ± 0.11 | -1.6 ± 0.082
71 | GAGGAGCAAUAUUACGUAUU | -3.47 ± 0.32 | 0.0104 ± 0.25
72 | AGUAAGCAAUAUUACGACUA | -0.283 ± 0.13 | -0.43 ± 0.13
73 | UGAGAGCAAUAUUACGCCGA | -1.96 ± 0.36 | 
74 | GUGGAGCAAUAUUACGAGCG | -3.52 ± 0.38 | -1.62 ± 0.31
75 | CCAAAGCAAUAUUACGUGUG | -1.33 ± 0.055 | -0.624 ± 0.066
76 | CGACAGCAAUAUUACGGGCU | -4.16 ± 0.2 | -2.53 ± 0.15
77 | AGCUAGCAAUAUUACGUACC | -0.329 ± 0.19 | -0.483 ± 0.25
78 | AAGUAGCAAUAUUACGCGCA | -0.196 ± 0.11 | 0.0802 ± 0.13
79 | CUGUAGCAAUAUUACGAAGA |  | -2.29 ± 0.29
